The series relates to T1, CC(=O)N[C@H]1[C@H](Oc2ccc([N+](=O)[O-])cc2)O[C@H](CO)[C@@H](O[C@@H]2O[C@H](CO)[C@@H](O)[C@H](O)[C@H]2NC(C)=O)[C@@H]1O.
T1 construct: full length 658 residues with predicted signal peptide (residue 23) kept, C-terminal His6 (pET-28a(+)), E. coli BL21(DE3); peptides AATPTPVSAT, EDYKVLKNA, LTFINYAFGNVYQK
Kind of series: p-nitrophenol release, Lineweaver-Burk plot. It counts as biochemical, Chitinolyticbacter meiyuanensis. The following applies: 50 mM sodium citrate pH 5.2, 50 °C, 5 min, apparent, text b64 prints the same number as mg/mL, table unit agrees with printed kcat/Km 73.5 mL/s/μmol. From the text: p-nitrophenol release, Lineweaver-Burk plot on CmChi1

Sequence of CmChi1 (Chitinolyticbacter meiyuanensis) (chain, as listed by the source): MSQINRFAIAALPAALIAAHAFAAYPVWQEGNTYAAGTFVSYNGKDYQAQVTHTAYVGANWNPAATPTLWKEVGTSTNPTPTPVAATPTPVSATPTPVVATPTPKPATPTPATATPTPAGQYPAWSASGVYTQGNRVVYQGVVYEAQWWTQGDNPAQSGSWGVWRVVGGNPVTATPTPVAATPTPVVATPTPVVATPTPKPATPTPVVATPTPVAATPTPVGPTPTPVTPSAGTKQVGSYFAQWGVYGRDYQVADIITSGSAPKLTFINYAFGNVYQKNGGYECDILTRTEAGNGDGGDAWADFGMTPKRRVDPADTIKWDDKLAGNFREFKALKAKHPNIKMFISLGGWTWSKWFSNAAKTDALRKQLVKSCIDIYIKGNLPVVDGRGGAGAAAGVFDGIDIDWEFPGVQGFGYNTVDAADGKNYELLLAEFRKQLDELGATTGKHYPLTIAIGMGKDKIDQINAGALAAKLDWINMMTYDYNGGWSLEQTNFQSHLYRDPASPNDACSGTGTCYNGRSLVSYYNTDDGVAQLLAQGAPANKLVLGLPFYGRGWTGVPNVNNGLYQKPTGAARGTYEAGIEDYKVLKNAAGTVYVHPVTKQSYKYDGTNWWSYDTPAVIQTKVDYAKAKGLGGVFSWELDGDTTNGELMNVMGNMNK

“CmChi1 (Chitinolyticbacter meiyuanensis)”: the Km stood at 580 ± 40 µM, the Vmax is 108.6 ± 3.3 (μmol/min/L), the kcat was 42.5 ± 1.4 s⁻¹ and the kcat/Km is on record as 73.5 ± 2.6 (mL/s/μmol).

A word on the Km: it is the substrate concentration at which the rate is half of its maximum. For orientation: kcat means the maximal rate divided by the concentration of active sites.

For the origin of these results see paper PMC6020246, “Molecular characterization of a novel chitinase CmChi1 from Chitinolyticbacter meiyuanensis SYBC-H1 and its use in N-acetyl-D-glucosamine production” (Biotechnology for Biofuels, 2018).
